Laboratory results published in PMC3412365 (The Journal of neuroscience : the official journal of the …, 2011).
Values belong to the binder of their own block, whether it stands above or below them.

Biological target: T1, RGS9-2 (mouse (endogenous in striatum), UniProt O54828-1 1-675)
T1 sequence (looked up): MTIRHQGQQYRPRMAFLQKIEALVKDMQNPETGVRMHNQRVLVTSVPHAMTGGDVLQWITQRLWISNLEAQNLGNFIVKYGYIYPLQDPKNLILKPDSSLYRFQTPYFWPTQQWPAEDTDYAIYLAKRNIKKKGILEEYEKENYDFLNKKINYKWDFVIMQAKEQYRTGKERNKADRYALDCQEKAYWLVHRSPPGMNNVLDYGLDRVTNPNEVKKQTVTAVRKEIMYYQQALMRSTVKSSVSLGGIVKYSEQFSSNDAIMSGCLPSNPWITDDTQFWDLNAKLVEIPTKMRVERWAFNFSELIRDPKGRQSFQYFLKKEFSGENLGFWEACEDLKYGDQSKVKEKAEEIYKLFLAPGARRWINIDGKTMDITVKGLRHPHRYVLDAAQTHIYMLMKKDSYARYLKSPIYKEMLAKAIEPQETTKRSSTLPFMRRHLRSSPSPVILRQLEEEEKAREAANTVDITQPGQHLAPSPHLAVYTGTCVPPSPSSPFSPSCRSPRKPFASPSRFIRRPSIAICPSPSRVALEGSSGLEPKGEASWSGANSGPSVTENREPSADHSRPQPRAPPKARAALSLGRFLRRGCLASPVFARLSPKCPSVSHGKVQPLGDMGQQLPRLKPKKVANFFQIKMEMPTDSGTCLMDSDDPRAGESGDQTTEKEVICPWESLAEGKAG
Experiment: co-IP

co-IP signal after chronic morphine, % compared with vehicle-treated mice: 171%
B1: Gβ5 (natural protein, mouse (endogenous in striatum), UniProt P62881-2 1-353, looked up)
chain: MATDGLHENETLASLKSEAESLKGKLEEERAKLHDVELHQVAERVEALGQFVMKTRRTLKGHGNKVLCMDWCKDKRRIVSSSQDGKVIVWDSFTTNKEHAVTMPCTWVMACAYAPSGCAIACGGLDNKCSVYPLTFDKNENMAAKKKSVAMHTNYLSACSFTNSDMQILTASGDGTCALWDVESGQLLQSFHGHGADVLCLDLAPSETGNTFVSGGCDKKAMVWDMRSGQCVQAFETHESDVNSVRYYPSGDAFASGSDDATCRLYDLRADREVAIYSKESIIFGASSVDFSLSGRLLFAGYNDYTINVWDVLKGSRVSILFGHENRVSTLRVSPDGTAFCSGSWDHTLRVWA

co-IP signal after chronic morphine, % compared with vehicle-treated mice: 216%
B2: Gαq (natural protein, mouse (endogenous in striatum), UniProt P21279 1-359, looked up)
chain: MTLESIMACCLSEEAKEARRINDEIERQLRRDKRDARRELKLLLLGTGESGKSTFIKQMRIIHGSGYSDEDKRGFTKLVYQNIFTAMQAMIRAMDTLKIPYKYEHNKAHAQLVREVDVEKVSAFENPYVDAIKSLWNDPGIQECYDRRREYQLSDSTKYYLNDLDRVADPSYLPTQQDVLRVRVPTTGIIEYPFDLQSVIFRMVDVGGQRSERRKWIHCFENVTSIMFLVALSEYDQVLVESDNENRMEESKALFRTIITYPWFQNSSVILFLNKKDLLEEKIMYSHLVDYFPEYDGPQRDAQAAREFILKMFVDLNPDSDKIIYSHFTCATDTENIRFVFAAVKDTILQLNLKEYNLV
